The target of experiment [1] is SC-CAT (SpyCatcher fused to the N-terminus of catalase) (Bacillus subtilis strain 168). In words: SEC; elution profiles compared with molecular weight standards. A general note: In gel filtration, larger molecules generally elute earlier.
Experiment [2] concerns the target SC-LOX (SpyCatcher fused to the N-terminus of lactate oxidase) (Aerococcus viridans). The description is as above.

Substance “SC-CAT (SpyCatcher fused to the N-terminus of catalase) (enzyme)” yielded a stoichiometry N in experiment [1] of 4.

Turning to “SC-LOX (SpyCatcher fused to the N-terminus of lactate oxidase) (enzyme)”, in experiment [2], the stoichiometry N worked out at 4.

The term stoichiometry N denotes a count of units in the complex or per binding partner.

Values taken from article PMC9811728.
